The term Kd denotes the equilibrium constant for the complex coming apart.

Results on one substance are retold here after patent US20030027981A1, “Urokinase-type plasminogen activator receptor” (priority 1989, published 2003).

One assay concerns the target u-PAR (Homo sapiens, UniProt Q03405). Description: Chemical cross-linking of 125I-ATF to purified u-PAR. The format is binding. As to conditions: unlabelled reagent 100 nM, u-PAR approx. 1 nM, 125I-ATF approx. 1 nM. The procedure: B) Affinity column eluate was diluted to yield an approximate concentration of u-PAR of 1 nM during the assay. The samples were preincubated alone (lane 2) or in the presence of the following unlabelled reagents at a concentration of 100 nM: bovine serum albumin (lane 3), t-PA (lane 4), plasminogen (lane 5), murine epidermal growth factor (lane 6), ATF (lane 7), active 54 kD u-PA (lane 8), DFP-inactivated 54 kD u-PA (lane 9). After preincubation for 15 min at room temperature, ^125I-labelled ATF (approximately 1 nM) was added, followed by incubation for 1 hour at 4° C. After incubation, chemical cross-linking was performed with DSS, after which the samples were analyzed by SDS-PACE on a 6-16% gradient gel under non-reducing conditions and autoradiography. […] Electrophoretic mobilities of molecular weight standard proteins are inducated (kD).
Cross-linking of u-PAR in complex mixtures or purified fractions to ^125I-labelled ATF was performed as described for solubilized receptor (Nielsen et al., 1988), except that 2 mM disuccinimidylsuberate (DSS) was used for cross-linking. Cross-linking of purified u-PAR to DFP-treated u-PA for analysis by SDS-PAGE and silver-staining was performed in the same manner, except that non-labelled DFP-treated u-PA was used as the ligand.

The target of a further assay is fibronectin (Homo sapiens, UniProt P02751). As to conditions: immobilized fibronectin; cited from earlier work.
Sequence of fibronectin (P02751 32-2477, species assumed): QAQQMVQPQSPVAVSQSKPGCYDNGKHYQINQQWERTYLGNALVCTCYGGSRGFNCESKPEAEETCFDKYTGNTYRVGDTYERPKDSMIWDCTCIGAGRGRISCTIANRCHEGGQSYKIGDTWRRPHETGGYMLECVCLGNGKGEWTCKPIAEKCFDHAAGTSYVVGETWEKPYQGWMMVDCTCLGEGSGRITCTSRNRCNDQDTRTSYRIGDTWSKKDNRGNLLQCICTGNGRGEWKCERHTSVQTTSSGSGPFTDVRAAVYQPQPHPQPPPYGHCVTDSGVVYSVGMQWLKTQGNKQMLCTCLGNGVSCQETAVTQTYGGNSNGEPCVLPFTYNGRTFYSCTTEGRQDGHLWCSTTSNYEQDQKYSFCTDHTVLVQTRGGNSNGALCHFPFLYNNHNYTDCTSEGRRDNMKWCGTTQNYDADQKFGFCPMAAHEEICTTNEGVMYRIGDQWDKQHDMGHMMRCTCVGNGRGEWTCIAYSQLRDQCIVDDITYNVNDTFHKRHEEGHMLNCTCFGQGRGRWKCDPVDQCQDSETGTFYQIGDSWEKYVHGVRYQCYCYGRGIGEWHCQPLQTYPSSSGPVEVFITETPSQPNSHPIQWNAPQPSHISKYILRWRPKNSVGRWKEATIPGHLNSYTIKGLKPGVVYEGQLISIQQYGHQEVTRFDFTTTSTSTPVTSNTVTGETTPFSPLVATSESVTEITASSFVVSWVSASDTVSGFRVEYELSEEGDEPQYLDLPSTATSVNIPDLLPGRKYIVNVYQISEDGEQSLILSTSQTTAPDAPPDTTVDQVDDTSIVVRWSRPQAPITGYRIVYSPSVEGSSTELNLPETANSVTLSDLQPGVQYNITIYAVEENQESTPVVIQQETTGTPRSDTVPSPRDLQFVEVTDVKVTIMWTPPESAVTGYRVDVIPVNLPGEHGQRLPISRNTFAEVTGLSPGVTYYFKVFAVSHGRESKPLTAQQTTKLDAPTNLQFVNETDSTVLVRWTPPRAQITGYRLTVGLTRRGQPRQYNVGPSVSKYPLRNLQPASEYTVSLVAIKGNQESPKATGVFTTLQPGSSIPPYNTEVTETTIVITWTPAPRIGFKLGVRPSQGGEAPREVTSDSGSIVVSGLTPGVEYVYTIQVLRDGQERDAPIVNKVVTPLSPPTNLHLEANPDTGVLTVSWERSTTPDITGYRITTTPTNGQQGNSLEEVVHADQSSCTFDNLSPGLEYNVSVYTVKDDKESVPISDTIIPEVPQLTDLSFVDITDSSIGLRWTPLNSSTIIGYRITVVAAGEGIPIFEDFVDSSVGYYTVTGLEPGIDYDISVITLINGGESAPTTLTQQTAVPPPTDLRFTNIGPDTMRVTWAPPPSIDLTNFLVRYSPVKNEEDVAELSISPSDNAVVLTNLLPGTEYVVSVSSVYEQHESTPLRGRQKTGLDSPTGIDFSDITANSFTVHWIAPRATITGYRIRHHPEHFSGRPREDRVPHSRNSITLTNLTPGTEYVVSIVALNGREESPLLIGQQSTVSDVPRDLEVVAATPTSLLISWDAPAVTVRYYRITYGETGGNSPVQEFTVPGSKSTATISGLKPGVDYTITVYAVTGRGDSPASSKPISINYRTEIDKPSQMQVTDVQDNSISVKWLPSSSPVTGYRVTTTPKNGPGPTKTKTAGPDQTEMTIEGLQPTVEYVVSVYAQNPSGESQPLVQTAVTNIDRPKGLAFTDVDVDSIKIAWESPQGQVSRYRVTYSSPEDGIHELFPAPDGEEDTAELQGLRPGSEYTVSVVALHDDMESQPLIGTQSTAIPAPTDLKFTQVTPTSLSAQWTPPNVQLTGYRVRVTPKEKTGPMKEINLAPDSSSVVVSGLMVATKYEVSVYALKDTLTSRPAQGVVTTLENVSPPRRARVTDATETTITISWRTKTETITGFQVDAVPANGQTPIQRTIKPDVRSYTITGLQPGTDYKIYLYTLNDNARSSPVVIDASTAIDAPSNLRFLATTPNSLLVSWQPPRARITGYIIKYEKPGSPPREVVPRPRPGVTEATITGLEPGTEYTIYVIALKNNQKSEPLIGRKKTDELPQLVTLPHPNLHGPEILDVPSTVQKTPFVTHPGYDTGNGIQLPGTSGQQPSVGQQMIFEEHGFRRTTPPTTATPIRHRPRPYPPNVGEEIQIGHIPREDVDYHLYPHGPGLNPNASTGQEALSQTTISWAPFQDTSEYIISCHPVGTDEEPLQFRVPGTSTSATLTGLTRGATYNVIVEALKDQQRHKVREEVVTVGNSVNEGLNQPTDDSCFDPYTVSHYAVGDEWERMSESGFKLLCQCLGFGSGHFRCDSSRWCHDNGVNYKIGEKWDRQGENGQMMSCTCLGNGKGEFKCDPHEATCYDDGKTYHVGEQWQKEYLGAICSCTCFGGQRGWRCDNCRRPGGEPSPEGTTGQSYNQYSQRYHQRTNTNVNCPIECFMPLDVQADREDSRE

Sequence of u-PAR (Q03405 23-305 limits assumed): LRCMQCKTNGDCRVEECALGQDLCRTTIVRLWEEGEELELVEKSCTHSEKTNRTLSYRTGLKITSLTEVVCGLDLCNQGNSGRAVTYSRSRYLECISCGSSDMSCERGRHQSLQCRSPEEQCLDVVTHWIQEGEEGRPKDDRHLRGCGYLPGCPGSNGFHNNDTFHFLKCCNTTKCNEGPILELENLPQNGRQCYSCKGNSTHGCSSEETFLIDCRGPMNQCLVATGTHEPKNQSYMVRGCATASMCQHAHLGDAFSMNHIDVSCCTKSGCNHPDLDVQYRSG

“Plg: native human plasminogen (glutamic acid N-terminal) purified from human plasma on lysine-Sepharose”: the “Competition for binding and cross-linking of 125I-labelled ATF to purified u-PAR” value with u-PAR is “no competition”. Moreover, the Kd with fibronectin is 90 nM.
